Target: T1, rKv4.2 (Rattus norvegicus, UniProt Q63881)
T1 construct: expressed in transfected cells; host or cells: CHO cells, transient transfection with GFP co-transfected
T1 sequence (Q63881 1-630): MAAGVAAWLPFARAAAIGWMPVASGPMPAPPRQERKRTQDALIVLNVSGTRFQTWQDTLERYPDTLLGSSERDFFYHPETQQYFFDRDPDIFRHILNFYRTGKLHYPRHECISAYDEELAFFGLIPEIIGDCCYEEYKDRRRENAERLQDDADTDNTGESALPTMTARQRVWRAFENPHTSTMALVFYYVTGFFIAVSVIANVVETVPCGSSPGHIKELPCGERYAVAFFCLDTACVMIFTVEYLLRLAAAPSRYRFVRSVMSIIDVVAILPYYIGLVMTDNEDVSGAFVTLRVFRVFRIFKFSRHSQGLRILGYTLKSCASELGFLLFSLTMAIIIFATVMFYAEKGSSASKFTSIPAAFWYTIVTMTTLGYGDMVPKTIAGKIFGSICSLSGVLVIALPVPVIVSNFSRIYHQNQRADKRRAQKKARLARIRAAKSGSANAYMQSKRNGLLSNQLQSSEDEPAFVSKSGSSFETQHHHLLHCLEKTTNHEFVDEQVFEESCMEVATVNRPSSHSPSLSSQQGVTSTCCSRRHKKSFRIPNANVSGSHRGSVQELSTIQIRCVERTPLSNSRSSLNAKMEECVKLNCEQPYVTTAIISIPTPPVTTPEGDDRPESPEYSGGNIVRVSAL
Experiment: Patch-clamp of Kv4.2 currents in CHO cells coexpressing KChIPs
Assay type: cell-based
Settings: for effects on Kv4.2 current density and kinetics: coexpressed with Kv4.2
Protocol: HEK 293 and CHO cells were used for recordings 1-3 days after a transient transfection. Whole-cell currents were recorded from cells expressing GFP, identified by their green fluorescence. […] After Gigaseal and ruptured whole-cell configuration access, resistance was less than 10 MOhms. Whole-cell bath solutions were made from a 10× Hank's balanced salt solution (GibcoBRL) with the following final concentration (in mM): 138 NaCl, 5.4 KCl, 1.3 MgCl2, 1.3 CaCl2, 5.5 D-Glukos and 10 HEPES, pH 7.4. The intracellular electrode solution consisted of (in mM) 140 KCl, 10 HEPES, 10 EGTA, 0.5 MgCl2, pH 7.3. All chemicals were from Sigma (St. Louis, Mo.) or Fisher Scientific (Houston, Tex.). Membrane currents were recorded using a EPC9 patch-clamp amplifier (HEKA, Germany). Data were analyzed using Matlab (Natick, Ma), and leak subtracted if necessary. All experiments were done at room temperature.
Because PCIPs, e.g., KChIP1 (1v), KChIP2 (9ql), and KChIP3 (p19), colocalize and coassociate with Kv4 α-subunits in brain, another critical question was to determine whether these PCIPs alter the conductance properties of Kv4 channels. To address this issue, Kv4.2 and Kv4.3 were expressed alone and in combination with individual PCIPs. CHO cells were transiently-transfected with cDNA using the DOTAP lipofection method as described by the manufacturer (Boehringer Mannheim, Inc.). Transfected cells were identified by cotransfecting enhanced GFP along with the genes of interest and subsequently determining if the cells contained green GFP fluorescence. Currents in CHO cells were measured using the patch-clamp technique (Hamill et al. 1981. Pfluegers Arch. 391: 85-100).
First, the amplitude of the Kv4.2 current increased approximately 7.5 fold in the presence of KChIP1 (amplitude of Kv4.2 alone=0.60+/−0.096 nA/cell; Kv4.2+KChIP1=4.5+/−0.55 nA/cell). […] Finally, the kinetics of Kv4.2 inactivation slowed considerably when Kv4.2 was coexpressed with KChIP1 (inactivation time constant of Kv4.2 alone=28.2+/−2.6 ms; Kv4.2+KChIP1=104.1+/−10.4 ms), while channels recovered from inactivation much more rapidly in cells expressing both Kv4.2 and KChIP1 (recovery tau=53.6+/−7.6 ms) versus cells expressing Kv4.2 alone (recovery tau=272.2+/−26.1 ms).

B1: KChIP3: Potassium channel interacting protein KChIP3 (p19) (protein)
chain: MQRTKEAMKASDGSLLGDPGRIPLSKREGIKWQRPRFTRQALMRCCLIKWILSSAAPQGSDSSDSELELSTVRHQPEGLDQLQAQTKFTKKELQSLYRGFKNECPTGLVDEDTFKLIYSQFFPQGDATTYAHFLFNAFDADGNGAIHFEDFVVGLSILLRGTVHEKLKWAFNLYDINKDGYITKEEMLAIMKSIYDMMGRHTYPILREDAPLEHVERFFQKMDRNQDGVVTIDEFLETCQKDENIMSSMQLFENVI
effects on Kv4.2 current density and kinetics: strikingly similar to those produced by KChIP1

B2: KChIP2: Potassium channel interacting protein KChIP2 (9ql) (protein)
chain: MRGQGRKESLSESRDLDGSYDQLTGHPPGPSKKALKQRFLKLLPCCGPQALPSVSETLAAPASLRPHRPRPLDPDSVEDEFELSTVCHRPEGLEQLQEQTKFTRRELQVLYRGFKNECPSGIVNEENFKQIYSQFFPQGDSSNYATFLFNAFDTNHDGSVSFEDFVAGLSVILRGTIDDRLSWAFNLYDLNKDGCITKEEMLDIMKSIYDMMGKYTYPALREEAPREHVESFFQKMDRNKDGVVTIEEFIESCQQDENIMRSMQLFDNVI
effects on Kv4.2 current density and kinetics: strikingly similar to those produced by KChIP1

B3: KChIP1 ΔN2-31: N-terminal truncation mutant of KChIP1, reduced to the C-terminal 185 amino acid core sequence (protein)
chain: MLCSSLKLLHYLGLIDLSDDKIEDDLEMTMVCHRPEGLEQLEAQTNFTKRELQVLYRGFKNECPSGVVNEETFKQIYAQFFPHGDASTYAHYLFNAFDTTQTGSVKFEDFVTALSILLRGTVHEKLRWTFNLYDINKDGYINKEEMMDIVKAIYDMMGKYTYPVLKEDTPRQHVDVFFQKMDKNKD
effects on Kv4.2 current density and kinetics: indistinguishable from the effects produced by full-length KChIP1 or KChIP2
Inactivation time constant (ms, at 50 mV) (rKv4.2 coexpressed with the KChIP, at 50 mV): 129.2 ± 14.2 ms
